Test results reported in article PMC10591475.

Molecular target: protein fusion 1, SpyCatcher03 fused to supercharged green fluorescent protein, conjugated with polymer surfactant ([SC3-scGFP][S])
Test: SDS-PAGE of covalent (isopeptide) SpyCatcher-SpyTag coupling; 10 uM of each protein mixed in 20 mM Tris-HCl, 700 mM NaCl, pH 7.5, 37 °C, monitored over 24 h, in triplicate; product estimated from the pixel intensity of the bands (GelAnalyzer)

| Substance | percent of coupling product formed after 15 s [%] | yield of coupling product after 24 h [%] |
| --- | --- | --- |
| protein fusion 3, mCherry fused to SpyTag03 (mCh-ST3) | 60 | 60 |
| protein fusion 2, fibronectin-binding protein CshA fused to mCherry with SpyTag03 on the C-terminus (CshA-mCh-ST3) | 40 | 80 |
